Experimental data published in PMC10511321.

Key:
[1] = biological target: SARS-CoV-2 Omicron BQ.1.1 S glycoprotein, cell-surface expressed (Δ19) (SARS-CoV-2) (UniProt P0DTC2)
[2] = biological target: SARS-CoV-2 Omicron BN.1 S glycoprotein, cell-surface expressed (Δ19) (SARS-CoV-2) (UniProt P0DTC2)
[3] = biological target: SARS-CoV-2 Omicron XBB.1 S glycoprotein, cell-surface expressed (Δ19) (SARS-CoV-2) (UniProt P0DTC2)
[4] = biological target: SARS-CoV-2 Omicron BA.2.75.2 RBD, construct used for SPR (SARS-CoV-2) (UniProt P0DTC2); assay: SPR

Row | Substance | neutralization of S VSV pseudovirus, fold reduction in potency relative to Wu [1] [fold] | neutralization of S VSV pseudovirus, fold reduction in potency relative to Wu [2] [fold] | neutralization of S VSV pseudovirus, fold reduction in potency relative to Wu [3] [fold] | Kd [4] [pM] | koff [4] [s⁻¹] | kon [4] [M⁻¹ s⁻¹]
1 | sotrovimab immunoglobulin G (IgG) (antibody) | 94 | 778 | 6.5 | – | – | –
2 | S309 Fab (fragment antigen-binding region of the S309 antibody, the parent antibody for sotrovimab), used for SPR | – | – | – | 860 | 2.8e-05 | 25500
